Results taken from US20210071139A1.

What was measured:
TOX [1] = target: TOX (UniProt Q66JW3); experiment: anti-TOX IP from EL4 nuclear extract, LC-MS/MS, MiST analysis
TOX [2] = target: TOX (UniProt Q66JW3); experiment: anti-TOX IP from EL4 cells, mass spectrometry, MiST analysis

TOX, sequence (Q66JW3 whole entry): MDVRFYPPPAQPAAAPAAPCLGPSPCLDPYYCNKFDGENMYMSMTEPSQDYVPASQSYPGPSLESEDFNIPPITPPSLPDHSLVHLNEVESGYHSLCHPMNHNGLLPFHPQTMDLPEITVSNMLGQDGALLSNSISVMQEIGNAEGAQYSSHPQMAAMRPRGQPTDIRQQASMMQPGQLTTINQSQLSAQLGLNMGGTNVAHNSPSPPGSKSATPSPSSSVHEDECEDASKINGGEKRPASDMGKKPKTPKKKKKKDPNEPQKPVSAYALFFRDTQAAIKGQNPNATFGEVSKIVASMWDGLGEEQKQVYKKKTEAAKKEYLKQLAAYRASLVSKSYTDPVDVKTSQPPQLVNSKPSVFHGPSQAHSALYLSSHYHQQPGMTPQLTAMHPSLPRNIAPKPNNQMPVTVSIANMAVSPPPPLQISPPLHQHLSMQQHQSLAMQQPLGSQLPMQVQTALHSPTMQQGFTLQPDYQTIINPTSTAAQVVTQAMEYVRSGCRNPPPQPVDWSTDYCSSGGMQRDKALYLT

Luzp1; mFLJ00226 (from UniProt Q8R4U7 2-1068)
Abundance (TOX [1]): 7.26e-06 | MiST Score (TOX [1]): 0.792 | Reproducibility (TOX [1]): 0.856 | Specificity (TOX [1]): 0.77

Lztfl1 (from UniProt Q9JHQ5 1-299)
Abundance (TOX [1]): 6.33e-05 | MiST Score (TOX [1]): 0.776 | Reproducibility (TOX [1]): 0.894 | Specificity (TOX [1]): 0.73

Nmt1 (from UniProt O70310 1-496) (enzyme)
Abundance (TOX [2]): 6.96e-06 | MiST Score (TOX [2]): 0.821 | Reproducibility (TOX [2]): 0.948 | Specificity (TOX [2]): 0.772

Numa1 (from UniProt E9Q7G0 1-2094)
Abundance (TOX [1]): 1.43e-06 | MiST Score (TOX [1]): 0.787 | Reproducibility (TOX [1]): 0.775 | Specificity (TOX [1]): 0.799

Nup98 (from UniProt Q6PFD9 1-880)
Abundance (TOX [2]): 5.87e-07 | MiST Score (TOX [2]): 0.803 | Reproducibility (TOX [2]): 0.381 | Specificity (TOX [2]): 1

Otud4 (from UniProt B2RRE7 1-1107) (enzyme)
Abundance (TOX [2]): 9.24e-07 | MiST Score (TOX [2]): 0.818 | Reproducibility (TOX [2]): 0.993 | Specificity (TOX [2]): 0.747

Parp2 (from UniProt O88554 1-559) (enzyme)
Abundance (TOX [2]): 2.87e-06 | MiST Score (TOX [2]): 0.827 | Reproducibility (TOX [2]): 0.46 | Specificity (TOX [2]): 1

Pds5a (from UniProt Q6A026 1-1332)
Abundance (TOX [2]): 1.76e-06 | MiST Score (TOX [2]): 0.824 | Reproducibility (TOX [2]): 0.865 | Specificity (TOX [2]): 0.813

Pds5b (from UniProt Q4VA53 1-1446)
Abundance (TOX [2]): 2.47e-06 | MiST Score (TOX [2]): 0.807 | Reproducibility (TOX [2]): 0.845 | Specificity (TOX [2]): 0.797

Pfkl (from UniProt P12382 2-780) (enzyme)
Abundance (TOX [1]): 3.37e-06 | MiST Score (TOX [1]): 0.768 | Reproducibility (TOX [1]): 0.501 | Specificity (TOX [1]): 0.894

Ppan (from UniProt Q91YU8 1-470)
Abundance (TOX [1]): 4.7e-05 | MiST Score (TOX [1]): 0.792 | Reproducibility (TOX [1]): 0.959 | Specificity (TOX [1]): 0.723

Ptpn11 (from UniProt P35235 2-593) (enzyme)
Abundance (TOX [2]): 4.22e-05 | MiST Score (TOX [2]): 0.808 | Reproducibility (TOX [2]): 0.396 | Specificity (TOX [2]): 1

Rars (from UniProt Q9D0I9 1-660) (enzyme)
Abundance (TOX [2]): 4.81e-06 | MiST Score (TOX [2]): 0.797 | Reproducibility (TOX [2]): 0.98 | Specificity (TOX [2]): 0.721

Rftn1 (from UniProt Q6A0D4 2-554)
Abundance (TOX [2]): 4.96e-06 | MiST Score (TOX [2]): 0.8 | Reproducibility (TOX [2]): 0.37 | Specificity (TOX [2]): 1

Rpa2 (from UniProt Q62193 1-270)
Abundance (TOX [2]): 0.000292 | MiST Score (TOX [2]): 0.814 | Reproducibility (TOX [2]): 0.977 | Specificity (TOX [2]): 0.747

Rpl14; Rpl14-ps1 (from UniProt Q9CR57 1-217)
Abundance (TOX [2]): 0.00405 | MiST Score (TOX [2]): 0.797 | Reproducibility (TOX [2]): 0.997 | Specificity (TOX [2]): 0.714

Rps23 (from UniProt P62267 1-143)
Abundance (TOX [2]): 0.00479 | MiST Score (TOX [2]): 0.807 | Reproducibility (TOX [2]): 0.997 | Specificity (TOX [2]): 0.728

Sfxn1 (from UniProt Q99JR1 2-322)
Abundance (TOX [2]): 3.71e-05 | MiST Score (TOX [2]): 0.827 | Reproducibility (TOX [2]): 0.954 | Specificity (TOX [2]): 0.777

Srsf5 (from UniProt O35326 1-269)
Abundance (TOX [2]): 0.000505 | MiST Score (TOX [2]): 0.807 | Reproducibility (TOX [2]): 0.996 | Specificity (TOX [2]): 0.729

Ssb (from UniProt P32067 1-415)
Abundance (TOX [2]): 3.74e-05 | MiST Score (TOX [2]): 0.809 | Reproducibility (TOX [2]): 0.807 | Specificity (TOX [2]): 0.817

Stau1 (from UniProt Q9Z108 1-487)
Abundance (TOX [2]): 1.96e-05 | MiST Score (TOX [2]): 0.825 | Reproducibility (TOX [2]): 0.951 | Specificity (TOX [2]): 0.776

Supt16; Supt16h (from UniProt Q920B9 2-1047)
Abundance (TOX [2]): 4.95e-06 | MiST Score (TOX [2]): 0.818 | Reproducibility (TOX [2]): 0.8 | Specificity (TOX [2]): 0.833

Tbl1x (from UniProt Q9QXE7 2-527)
Abundance (TOX [2]): 5.34e-06 | MiST Score (TOX [2]): 0.825 | Reproducibility (TOX [2]): 0.453 | Specificity (TOX [2]): 1

Tdrd3 (from UniProt Q91W18 1-743)
Abundance (TOX [2]): 8.62e-06 | MiST Score (TOX [2]): 0.815 | Reproducibility (TOX [2]): 0.627 | Specificity (TOX [2]): 0.907

Tfip11 (from UniProt Q9ERA6 1-838)
Abundance (TOX [2]): 5.43e-06 | MiST Score (TOX [2]): 0.826 | Reproducibility (TOX [2]): 0.972 | Specificity (TOX [2]): 0.767

Tpx2 (from UniProt A2APB8 1-745)
Abundance (TOX [2]): 1.91e-05 | MiST Score (TOX [2]): 0.805 | Reproducibility (TOX [2]): 0.992 | Specificity (TOX [2]): 0.727

Tra2b (from UniProt P62996 2-288)
Abundance (TOX [2]): 3.65e-05 | MiST Score (TOX [2]): 0.803 | Reproducibility (TOX [2]): 0.381 | Specificity (TOX [2]): 1

Wrnip1 (from UniProt Q91XU0 1-660)
Abundance (TOX [2]): 3.59e-06 | MiST Score (TOX [2]): 0.812 | Reproducibility (TOX [2]): 0.41 | Specificity (TOX [2]): 1

Yars (from UniProt Q91WQ3 1-528) (enzyme)
Abundance (TOX [2]): 2.51e-06 | MiST Score (TOX [2]): 0.802 | Reproducibility (TOX [2]): 0.379 | Specificity (TOX [2]): 1

Ythdf1 (from UniProt P59326 2-559)
Abundance (TOX [2]): 3.5e-05 | MiST Score (TOX [2]): 0.811 | Reproducibility (TOX [2]): 0.833 | Specificity (TOX [2]): 0.809

Zc3h11a (from UniProt Q6NZF1 1-792)
Abundance (TOX [2]): 1.22e-05 | MiST Score (TOX [2]): 0.801 | Reproducibility (TOX [2]): 0.957 | Specificity (TOX [2]): 0.737
